In paper PMC11216086, “The structure of TRAF7 coiled-coil trimer provides insight into its function in zebrafish embryonic development” (Journal of Molecular Cell Biology, 2024):

B1: TrxA-tagged wild-type human TRAF7 CC (fragment 270–379 aa) [human] / itself (parent)
chain: GNQDTYETHLETCRFEGLKEFLQQTDDRFHEMHVALAQKDQEIAFLRSMLGKLSEKIDQLEKSLELKFDVLDENQSKLSEDLMEFRRDASMLNDELSHINARLNMGILGS

Variants of: B1
Test: SEC-MALS (self-association / trimerisation)
Conditions: with itself; TrxA-tagged at the N-terminus; theoretical molecular weight of the WT trimer is 84.9 kDa

**Q.** Which screen value does the source give for GNQDTYETHLETCRFEGLKEFLQQTDDRFHEMHVALAQKDQEIAFLRSMLGKLSEKIDQLEKSLELKFDVLDENQSKRSEDLMEFRRDASMLNDELSHINARLNMGILGS here?
**A.** The screen value was 63.5 kDa.

**Q.** How did the screen value turn out when GNQDTYETHLETCRFEGLKEFLQQTDDRFHEMHVALAQKDQEIAFLRSMLGKRSEKIDQLEKSLELKFDVLDENQSKLSEDLMEFRRDASMLNDELSHINARLNMGILGS was run?
**A.** The screen value was 49.5 kDa.
